Test results taken from patent US6406883.

Molecular target: human laminin (immobilized; Gibco BRL) (human) (UniProt P25391)
Test: cell-based or functional assay
[1] = scale: % of values obtained for the wildtype strain

Row | Substance | adherence of FITC-labelled lmb mutant lmb-k1 to immobilized laminin, relative to wildtype strain O90R [1] | adherence of FITC-labelled lmb mutant lmb-k2 to immobilized laminin, relative to wildtype strain O90R [1] | adherence of FITC-labelled O90R wildtype bacteria to laminin preincubated with recombinant Lmb (100 ug/ml) (% of the initial values)
1 | Lmb on the surface of Streptococcus agalactiae (GBS) wildtype strain O90R | 25 | 25 | 
2 | Recombinant Lmb protein harboring six consecutive histidin residues at the C-terminus (amino acid 19-306, expressed from pET21a::lmb in E. coli BL21(DE3)) |  |  | 60
